Target: glutathione S-transferase from Schistosoma japonicum (Schistosoma japonicum)
Assay: SAXS; GST alone in 20 mM phosphate, 80 mM NaCl, pH 8.0, 20 °C; shape reconstruction (GASBOR, DAMAVER) superimposed on crystal structure 1UA5

stoichiometry N: 2
Substance: glutathione S-transferase from Schistosoma japonicum (enzyme)

Source: PMC3784749
